Measurements taken from patent publication US20060040861A1, “Method of treating, preventing, and diagnosing prostate cancer” (priority 2004, published 2006).

What was measured:
LNCaP-FGC cells = assay: MTT assay (cell growth / viability); type: cell-based, human; settings: 5 days
Method: (§1) DU145 (1×10^3/well), PC-3 (1×10^3/well) and LNCaP-FGC (1.5×10^3/well) cells were seeded in 96-well plates 24 hours prior to serum starvation. Cells were starved of serum for 24 hours and then incubated in the serum-free medium with or without 12.5 μg/ml leptin for 5 days. 3-(4,5-dimethylthiazol-2-yl)-2,5-diphenyl tetrazolium bromide (MTT) was added to each well to a concentration of 0.5 mg/ml. After 3-hour incubation at 37° C., cells were lysed in 50% dimethylformamide and 20% SDS at 37° C. Optical densities (O.D.) at 550 nm and 670 nm were measured by a plate reader, and differential O.D. between 550 nm and 670 nm (O.D. 550 nm minus O.D. 670 nm) were determined. Each experiment was performed in quadruplicate, and the values are reported as mean±SD.
(§2) DU145 (0.5-1.0×10^3/well), PC-3 (0.5-1.0×10^3/well), and LNCaP FGC (0.75-1.5×10^3/well) cells were seeded in 96-well plates 24 hours prior to serum starvation. Cells were starved of serum for 24 hours and then incubated in the serum-free medium with or without cytokine(s), DHT and/or doxorubicin at indicated concentrations for 5 days. MTT was added to each well to a concentration of 0.5 mg/ml. After being incubated at 37° C. for 3 hours, cells were lysed in 50% dimethylformamide and 20% SDS at 37° C. Optical densities (OD) at 550 and 670 nm were measured by a plate reader, and differential OD between 550 and 670 nm (OD 550 minus OD 670 nm) were determined. Each experiment was performed in quadruplicate, and the values were reported as mean±S.D.

PC-3 cells = assay: MTT assay (cell growth / viability); type: cell-based, human; settings: 5 days
Method: as §1, §2

c-Jun = assay: Western blot analysis of c-Jun phosphorylation in human cancer cells; type: cell-based
Method: (§3) Eighty-percent confluent prostate cancer cells were starved in the serum-free medium for 24 hours and then treated by 12.5 μg/ml leptin or 10 μg/ml anisomycin for the indicated periods. In some experiments, cells were pretreated with SP600125 prior to cytokine stimulation as described below. Cells were washed twice with cold PBS, harvested by a scraper and centrifuged for 10 minutes at 700×g at 4° C. The pellet was homogenized in the cell lysis buffer (20 mM HEPES, pH 7.9, 300 mM NaCl, 1 mM EDTA, 15% glycerol, 0.5% NP-40, 1 mM Na3VO4, 1 μg/ml leupeptin, 5 μg/ml aprotinin, 1 μg/ml pepstatin and 1 mM PMSF) and incubated at 4° C. with gentle rocking for 30 minutes. This homogenate was centrifuged for 5 minutes at 15,000×g, and the supernatant was saved as a cell lysate and stored at −80° C. until use.
Cell lysates containing 100 μg of protein were electrophoresed on 10% SDS-polyacrylamide gels and electrotransferred to PVDF membranes. Following the supplier's instructions, the membranes were washed, blocked and hybridized with anti-phospho-c-Jun (Ser-63 or Ser-73) polyclonal antibody that specifically recognizes a phosphorylated form of c-Jun. Bands were visualized using a Lumiglo reagent (Cell Signaling Technology Inc.). The membranes were then stripped and re-hybridized with anti-c-Jun antibody that detects both phosphorylated and unphosphorylated forms to normalize sample variations.
SP600125 was dissolved in DMSO to make a stock solution. Eighty-percent confluent prostate cancer cells were serum-starved for 24 hours and pretreated with SP600125 at indicated concentrations for 30 minutes, followed by leptin treatment (12.5 μg/ml): 15 minutes for Western blot analysis or 20 hours for thymidine incorporation assays. DMSO-treated cells were employed as controls.
(§4) Seventy-percent confluent cells were deprived of serum for 24 hours, followed by treatment with 1 μg/ml f- or g-adiponectin or 10 μg/ml anisomycin for indicated periods. After being rinsed with cold phosphate-buffered saline, cells were harvested using a scraper and collected by centrifugation at 700×g for 10 minutes at 4° C. The cell pellets were then homogenized in cell lysis buffer (20 mM HEPES, pH 7.9, 300 mM NaCl, 1 mM Na3VO4, 1 μg/ml leupeptin, 5 μg/ml aprotinin, 1 μg/ml pepstatin, and 1 mM phenylmethylsulfonyl fluoride) and rocked gently for 30 minutes at 4° C. The homogenates were centrifuged at 15,000×g for 5 minutes at 4° C., and the supernatants were saved as cell lysates and stored at −80° C. until use.
Cell lysates (100 μg of protein) were electrophoresed on 10% SDS-polyacrylamide gels and transferred to polyvinylidene difluoride membranes. […]

JNK = assay: In vitro JNK assay on lysates of treated human cancer cells; type: cell-based
Method: as §3
JNK activity was measured using the SAPK/JNK Assay Kit (Cell Signaling Technology Inc.) according to the manufacture's instructions. Briefly, JNK was precipitated in 250 μl of cell lysates (250 μg protein) with 2 μg of glutathione Sepharose beads immobilized by a recombinant fusion protein of the c-Jun N-terminus (1-89) and glutathione S-transferase as a JNK substrate. After being washed with the cell lysis buffer 3 times, the precipitates were incubated in 50 μl of the kinase buffer containing 100 μM ATP at 30° C. for 30 minutes. The reaction was stopped by addition of the SDS sample buffer. The N-terminal c-Jun (1-89) fusion protein was separated by SDS-polyacrylamide gel electrophoresis, and its phoshporylation was determined by Western blot analysis using anti-phospho-c-Jun (Ser-63) polyclonal antibody as described above. JNK protein levels in cell lysates were also measured by Western blot analysis using anti-JNK antibody to normalize sample variations.
as §4
Using the stress-activated protein kinase/JNK assay kit, JNK activity was assessed with a fusion protein of the c-Jun NH2 terminus (amino acids 1 to 89) and glutathione S-transferase as a substrate according to the manufacture's instructions with some modifications as reported before (M. Onuma, et al., supra, 2003). Briefly, JNK was precipitated in cell lysates (250-500 μg of protein) with 2 μg of glutathione-Sepharose beads immobilized by the fusion protein. The precipitates were rinsed with the cell lysis buffer three times, followed by incubation in 50 μl of the kinase buffer containing 100 μM ATP at 30° C. for 30 minutes. The reaction was terminated by adding the SDS sample buffer. The substrate fusion protein was separated by SDS-polyacrylamide gel electrophoresis, and its phosphorylation by JNK was determined by Western blot analysis using anti-phospho-c-Jun (Ser-63) polyclonal antibody. To normalize sample variations, JNK protein levels were also determined by Western blot analysis using anti-JNK antibody.

[1] = DU145, PC-3, LNCaP-FGC and HepG2 cells, 1.0 μg/ml

**Q.** What does the source list for “leptin: Recombinant human leptin purchased from R&D Systems; major adipose cytokine”?
**A.** live cell mass (MTT) (LNCaP-FGC cells; 12.5 μg/ml leptin, serum-free): did not influence; living cells (MTT) (PC-3 cells; 12.5 μg/ml leptin, serum-free): increased living cells; c-Jun phosphorylation on Ser-63 and Ser-73 (c-Jun; DU145 and PC-3 cells, 12.5 μg/ml leptin): stimulated c-Jun phosphorylation; time of peak JNK activation after addition (JNK; DU145, 12.5 μg/ml leptin): 15 min; time of return of JNK activation to the basal level (JNK; DU145, 12.5 μg/ml leptin): 45 min; JNK activity (JNK; DU145, 12.5 μg/ml leptin, up to 60 minutes): stimulated JNK activity; JNK activity (JNK; LNCaP-FGC, 12.5 μg/ml leptin, up to 60 minutes): did not influence JNK activity; time of peak JNK activation after addition (JNK; PC-3, 12.5 μg/ml leptin): 15 min; JNK activity (JNK; PC-3, 12.5 μg/ml leptin, up to 60 minutes): stimulated JNK activity

B1: f-adiponectin: Recombinant human full-length (non-proteolytic) adiponectin, about 30-kDa polypeptide; lot mainly HMW form (protein, UniProt Q15848 1-244, looked up)
chain: MLLLGAVLLLLALPGHDQETTTQGPGVLLPLPKGACTGWMAGIPGHPGHNGAPGRDGRDGTPGEKGEKGDPGLIGPKGDIGETGVPGAEGPRGFPGIQGRKGEPGEGAYVYRSAFSVGLETYVTIPNMPIRFTKIFYNQQNHYDGSTGKFHCNIPGLYYFAYHITVYMKDVKVSLFKKDKAMLFTYDQYQENNVDQASGSVLLHLEVGDQVWLQVYGEGERNGLYADNDNDSTFTGFLLYHDTN
modifications: full-length
notes: Recombinant human full-length (non-proteolytic) adiponectin, about 30-kDa polypeptide; lot mainly HMW form
**Q.** Which “effect on DHT-stimulated cell growth (MTT)” value (LNCaP-FGC cells; 1 μg/ml f-adiponectin, 10 nM DHT) does the source give for B1 here?
**A.** significantly suppressed

**Q.** What about the “effect on the conditioned medium stimulation of cell growth (MTT)” value (LNCaP-FGC cells; 1 μg/ml f-adiponectin) of the same molecule?
**A.** drastically suppressed

**Q.** And the “effect on the doxorubicin suppression of cell growth (MTT)” value (LNCaP-FGC cells; 1 μg/ml f-adiponectin)?
**A.** enhanced the doxorubicin suppression

**Q.** What about the “cell growth (MTT) at concentrations up to 1 μg/ml” value (LNCaP-FGC cells; serum-free) of the same molecule?
**A.** inhibited cell growth in a dose-dependent manner

**Q.** And the “concentration at which the inhibitory effect on cell growth saturated” value (LNCaP-FGC cells; MTT)?
**A.** 1 µg/mL

**Q.** And the “effect on the conditioned medium stimulation of cell growth (MTT)” value (PC-3 cells; 1 μg/ml f-adiponectin)?
**A.** drastically suppressed

**Q.** What about the “effect on the doxorubicin suppression of cell growth (MTT)” value (PC-3 cells; 1 μg/ml f-adiponectin) of the same molecule?
**A.** enhanced the doxorubicin suppression

**Q.** What about the “cell growth (MTT) at concentrations up to 1 μg/ml” value (PC-3 cells; serum-free) of the same molecule?
**A.** inhibited cell growth in a dose-dependent manner

**Q.** What about the “concentration at which the inhibitory effect on cell growth saturated” value (PC-3 cells; MTT) of the same molecule?
**A.** 1 µg/mL

**Q.** And the “c-Jun phosphorylation at Ser-63” value (c-Jun; [1])?
**A.** augmented c-Jun phosphorylation at Ser-63

**Q.** What about the “c-Jun phosphorylation at Ser-73” value (c-Jun; DU145, PC-3 and HepG2 cells, 1.0 μg/ml) of the same molecule?
**A.** stimulated Ser-73 phosphorylation

**Q.** What about the “c-Jun phosphorylation at Ser-73” value (c-Jun; LNCaP-FGC cells, 1.0 μg/ml) of the same molecule?
**A.** quite modest

**Q.** And the “time of peak JNK activation after addition” value (JNK; [1])?
**A.** 10 min

**Q.** What about the JNK activation (JNK; DU145, PC-3, LNCaP-FGC and HepG2 cells, 1.0 μg/ml, up to 60 minutes) of the same molecule?
**A.** further stimulated JNK activation
